Common to all, as to assay: flow cytometry, protein L-biotin then streptavidin-PE on LV-transduced human primary T cells
In general terms: In flow cytometry, cells or beads pass a laser one at a time.

Experiment [1] has as its target CAR19 construct 1494 (LTG1494): SP-CD19binder-CD8link-CD8tm-signaling.
Experiment [2] deals with CAR19 construct 1713 (LTG1713): SP-CD19binder-Truncated TNFRSF19link-TNFRSF19tm-signaling.
Target sequence (chain, as listed by the source): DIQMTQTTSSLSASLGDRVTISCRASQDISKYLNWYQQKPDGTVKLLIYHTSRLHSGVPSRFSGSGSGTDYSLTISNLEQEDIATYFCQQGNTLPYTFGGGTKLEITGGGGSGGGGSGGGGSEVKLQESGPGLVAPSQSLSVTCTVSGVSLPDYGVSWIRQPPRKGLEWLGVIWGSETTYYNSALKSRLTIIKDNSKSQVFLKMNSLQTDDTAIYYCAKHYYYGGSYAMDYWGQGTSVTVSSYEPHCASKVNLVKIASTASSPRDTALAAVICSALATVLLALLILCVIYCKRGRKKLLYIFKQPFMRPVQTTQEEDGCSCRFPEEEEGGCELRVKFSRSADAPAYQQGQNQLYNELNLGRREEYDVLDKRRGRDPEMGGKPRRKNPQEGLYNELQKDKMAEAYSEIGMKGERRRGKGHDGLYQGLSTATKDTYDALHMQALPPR
For experiment [3], the target named is CAR19 construct 1712 (LTG1712): SP-CD19binder-TNFRSF16link-TNFRSF16tm-signaling.
Target sequence (chain, as listed by the source): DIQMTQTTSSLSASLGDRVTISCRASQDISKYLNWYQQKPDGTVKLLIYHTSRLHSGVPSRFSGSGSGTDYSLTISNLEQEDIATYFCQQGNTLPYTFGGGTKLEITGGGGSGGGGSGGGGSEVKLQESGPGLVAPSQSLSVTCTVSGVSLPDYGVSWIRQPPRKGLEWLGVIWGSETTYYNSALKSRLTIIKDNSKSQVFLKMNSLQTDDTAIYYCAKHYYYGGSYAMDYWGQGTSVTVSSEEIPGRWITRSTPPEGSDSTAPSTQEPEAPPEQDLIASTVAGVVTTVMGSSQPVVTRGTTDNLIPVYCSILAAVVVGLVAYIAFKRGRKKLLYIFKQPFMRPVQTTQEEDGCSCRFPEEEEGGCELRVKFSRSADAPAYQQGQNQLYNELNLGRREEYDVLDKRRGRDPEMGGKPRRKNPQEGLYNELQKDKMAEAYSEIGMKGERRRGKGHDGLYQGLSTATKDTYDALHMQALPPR

For the substance protein L-biotin conjugate, the percentage CAR on T cell surface (cells stained) in experiment [1] came to 90.4%; in experiment [2], 0.3%; in experiment [3], 86.4%.
